Measurements from paper PMC8452638.

Assays:
RAD-51 (nematode) [1] = test: stopped-flow Cy3 fluorescence; conditions: SF buffer: 50 mM Tris-HCl pH 7.5, 5 mM MgCl2, 50 mM NaCl, 2 mM ATP or ADP or no nucleotide; EMSA 25 C with 0.125% glutaraldehyde; BLI room temperature with …
RAD-51 (nematode) [2] = test: stopped-flow Cy3 fluorescence, competitor challenge; conditions: Cy3 in backbone after nt 21; SF buffer: 50 mM Tris-HCl pH 7.5, 5 mM MgCl2, 50 mM NaCl, 2 mM ATP or ADP or no nucleotide; EMSA 25 C with 0.125% glutaraldehyde; BLI room temperature with …
RAD-51 (nematode) [3] = molecular target: RAD-51 (nematode) (UniProt Q95Q25)

## TTTTTTTTTTTTTTTTTTTTTTTTTTTTTTTTTTTTTTTTTTT [Cy3-43mer (label position not stated)]
RAD-51 (nematode) [1]
  IC50: 200 nM

## TTTTTTTTTTTTTTTTTTTTTTTTTTTTTTTTTTTTTTTTTTT [(Int21)-Cy3-43mer]
RAD-51 (nematode) [2]
  K half: 26 nM

## RFS-1/RIP-1 complex (from UniProt P34348 1-245)
RAD-51 (nematode) [3]
  stopped-flow, Cy3-43mer ssDNA (15 nM), RAD-51 1 uM pre-mixed with increasing RFS-1/RIP-1 (up to 1 uM), no nucleotide: reduction of the fluorescence increase due to RAD-51 binding to ssDNA: 3 fold
